Results from patent publication US20240270801A1, “EPITOPE PEPTIDE OF HUMAN ALPHA-SYNUCLEIN AND PHARMACEUTICAL COMPOSITION INCLUDING SAID PEPTIDE” (Sumitomo Pharma Co., Ltd., priority 2021, published 2024).
No end group written: not given here. KLH = keyhole limpet hemocyanin

How the values were obtained:
aggregated human αSyn [1] = assay: Antibody-inducing ability in mice: ELISA antibody titer of immune serum with respect to aggregated human αSyn; format: in vivo, mouse
In short: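 Female balb/c mice (6 weeks) immunized i.m. twice, 2 weeks apart, with conjugate (250 μg/mouse) or KLH-DMPVDPDN (25 μg/mouse) plus Alum (50 μg/mouse); serum taken 2 weeks after second dose. ELISA on plates coated with aggregated human αSyn (15 ng/well), anti-mouse IgG-HRP, TMB, A450; titers expressed relative to reference conjugate set to 1 (log).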

aggregated human αSyn [2] = assay: Antibody-inducing ability in cynomolgus monkeys: ELISA antibody titer with respect to aggregated human αSyn; format: in vivo; details: i.m. three times at 2-week interval, Alum; AJ conjugates 2,000 μg/monkey, KLH-DMPVDPDN 75 μg/monkey; FIG. 4B
Protocol: The antibody-inducing ability of the AJ-human αSyn peptide conjugate with respect to human αSyn and aggregated human αSyn in cynomolgus monkeys was evaluated. The AJ-human αSyn peptide conjugates (AJ-p54, AJ-p150, AJ-p283, AJ-p142, and AJ-p273) (2,000 μg/monkey) and KLH-DMPVDPDN (75 μg/monkey) were intramuscularly administered to cynomolgus monkeys (males, 3 to 7 years old, SNBL, Ltd.) three times at a 2-week interval using Alum (InvivoGen, 200 μg/monkey) as an adjuvant. Blood was collected before administration and 4, 6, 8, and 10 weeks after the first administration to recover the serum. ELISA was performed by the following method.
96-well plates were coated with human αSyn (Sigma-Aldrich) or aggregated human αSyn (StressMarq Biosciences Inc.) at 0.2 μg/well or 15 ng/well. After washing with PBST once, blocking was performed with 3% skim milk (FUJIFILM Wako Pure Chemical Corporation). After washing with PBST three times, diluted serum was added to cause a reaction at room temperature for 1 hour. Furthermore, after washing with PBST three times, Goat anti-Monkey IgG-HRP (Bio-Rad Laboratories, Inc.) was added to cause a reaction at room temperature for 1 hour. […] An equal volume of a TMB Stop Solution (KPL) was added to stop the reaction, and the absorbance at 450 nm was measured.

KLH-C-DMPVDPDN ({KLH}-CDMPVDPDN) [KLH-DMPVDPDN, comparison vaccine, reference compound]
Antibody-inducing ability regarding the aggregated human αSyn (in words) (aggregated human αSyn [1]; Example 2, balb/c mice): very weak
Antibody titer with respect to aggregated human αSyn (N = 4 − 6, mean ± standard deviation) (aggregated human αSyn [1]; Example 2, balb/c mice, i.m. twice at 2-week interval, Alum, AJ conjugates 250 μg/mouse, KLH-DMPVDPDN 25 μg/mouse, serum 2 weeks after second administration): 208 ± 205
Induction of the antibody to aggregated human αSyn (in words) (aggregated human αSyn [1]; Example 4, balb/c mice): did not induce the antibody to aggregated human αSyn
Antibody titer with respect to aggregated human αSyn (mean ± standard deviation) (aggregated human αSyn [1]; Example 4, balb/c mice, i.m. twice at 2-week interval, Alum, AJ conjugates 250 μg/mouse, KLH-DMPVDPDN 25 μg/mouse): 36 ± 20
Induction of the antibody to aggregated human αSyn in cynomolgus monkeys (aggregated human αSyn [2]): not induced
